The text below walks through data of US20240415886A1.

Assay [1] concerns the target p53^R175H/HLA-A2 tetramer labeled with PE (p53^R175H peptide … with Flex-T HLA-A*02:01 monomer, Biolegend cat #280003) (human). The assay is described as follows: flow cytometry, PE tetramer staining of gated CD8+GFP+ TCR-transduced primary T cells.
For assay [2], the target named is mutated p53^R175H peptide (…) presented by HLA-A2 on target cells (human). The assay is described as follows: cell-based or functional assay.

B1: inventive TCR specific for the mutated p53^R175H peptide in the context of HLA-A2, with murine alpha and beta constant regions, expressed from lentiviral … (TCR, V domains shown)
V domain 1: GIQVEQSPPDLILQEGANSTLRCNFSDSVNNLQWFHQNPWGQLINLFYIPSGTKQNGRLSATTVATERYSLLYISSSQTTDSGVYFCAVNQAGTALIFGKGTTLSVSS
V domain 2: EPEVTQTPSHQVTQMGQEVILRCVPISNHLYFYWYRQILGQKVEFLVSFYNNEISEKSEIFDDQFSVERPDGSNFTLKIRSTKLEDSAMYFCASMGTGDEAFFGQGTRLTVVE
With B1, the percent of cells binding tetramer in assay [1] is 82.9%.

B2: inventive TCR specific for the mutated p53^R175H peptide in the context of HLA-A2, with murine alpha and beta constant regions, expressed from lentiviral … (TCR)
TCR alpha: GIQVEQSPPDLILQEGANSTLRCNFSDSVNNLQWFHQNPWGQLINLFYIPSGTKQNGRLSATTVATERYSLLYISSSQTTDSGVYFCAVNQAGTALIFGKGTTLSVSSNIQNPEPAVYQLKDPRSQDSTLCLFTDFDSQINVPKTMESGTFITDKTVLDMKAMDSKSNGAIAWSNQTSFTCQDIFKETNATYPSSDVPCDATLTEKSFETDMNLNFQNLSVMGLRILLLKVAGFNLLMTLRLWSS
TCR beta: EPEVTQTPSHQVTQMGQEVILRCVPISNHLYFYWYRQILGQKVEFLVSFYNNEISEKSEIFDDQFSVERPDGSNFTLKIRSTKLEDSAMYFCASMGTGDEAFFGQGTRLTVVEDLRNVTPPKVSLFEPSKAEIANKQKATLVCLARGFFPDHVELSWWVNGKEVHSGVSTDPQAYKESNYSYCLSSRLRVSATFWHNPRNHFRCQVQFHGLSEEDKWPEGSPKPVTQNISAEAWGRADCGITSASYQQGVLSATILYEILLGKATLYAVLVSTLVVMAMVKRKNS
In assay [2], B2 came in with an avidity (lowest activating peptide concentration), CD8+ primary T cells against CD8-negative JRT cells of 10 fold; a percentage of CD8+CD137+ cells in the gated GFP+ cells of 1 ng/mL; a percentage of CD69+ cells in the gated GFP+ JRT cells of 10 ng/mL.
